Measured values from the supplement of paper PMC10724198.
± gives the standard deviation of the averaged measurements.

Tested on: Saccharomyces cerevisiae
Experiment: protein stability index of tFT-peptide fusion (C-terminal peptide) (PSI (0-1 scale)); higher = more stable (slower turnover)
Settings: genetic background: wild type; temperature: 30 C
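Also: PSI is a weighted mean of sequencing reads over stability bins, variants kept only with over 10 reads, mCherry proximal and sfGFP distal, peptide attached via GGGS linker.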

Row | Sequence | protein stability index
1 | LTWRVDECPPYS | 0.712 ± 0.038
2 | YTPPNTLCPPVA | 0.703 ± 0.24
3 | CSKRTGRKSVTY | 0.7299 ± 0.0063
4 | VELFSYGHHCRV | 0.658 ± 0.011
5 | GVFCWVGLSAFL | 0.5866 ± 0.004
6 | CVDWGAVGLVAG | 0.598 ± 0.018
7 | RVSGYTHPLLSC | 0.679 ± 0.079
8 | PSRVPSSVPLAP | 0.6864 ± 0.0061
9 | RQQSIIDNQIGQ | 0.6802 ± 0.0061
10 | QGGREGSRQRRV | 0.629 ± 0.013
11 | PFHSLSATFPPR | 0.768 ± 0.086
12 | SLARGFVVPMWP | 0.707 ± 0.045
13 | GICIVGGCGCVG | 0.612 ± 0.068
14 | IRRAGPMVAKGK | 0.649 ± 0.086
15 | APPSPRPSRPSP | 0.64 ± 0.029
16 | GTLWPLPCRPDG | 0.5607 ± 0.0021
17 | SPRFLLNCWGRL | 0.821 ± 0.027
18 | TPKETGNNNMPN | 0.677 ± 0.09
19 | ERWGGSGGGCAA | 0.67 ± 0.051
20 | PRAHIDWALTVM | 0.548 ± 0.065
21 | RDGLWCFSEFLG | 0.731 ± 0.048
22 | ASVSVWLVFSGG | 0.594 ± 0.0075
23 | FRSRGPVGMGAS | 0.686 ± 0.1
24 | GSVRLLDNLQRL | 0.663 ± 0.057
25 | FNGANEDCDLGV | 0.665 ± 0.12
26 | FKLSRTDSWMFT | 0.712 ± 0.01

Row | Sequence | protein stability index
27 | PTTVPPGPTSVH | 0.755 ± 0.058
28 | DKIYNRNSKRRI | 0.6418 ± 0.0055
29 | GLCVFVNKPSIL | 0.711 ± 0.011
30 | RVDALVHLPLRL | 0.629 ± 0.03
31 | ASYGTRHSAPSV | 0.678 ± 0.0076
32 | ENQGEKKKKKKR | 0.703 ± 0.022
33 | VFLTLDVFPSSP | 0.647 ± 0.17
34 | RGYEGSEVQVGV | 0.677 ± 0.043
35 | KTQKKPNNRKNI | 0.682 ± 0.04
36 | IYAQFCSLYDHP | 0.702 ± 0.013
37 | APPPRLAPTLSS | 0.775 ± 0.014
38 | APTVPVPPSPDA | 0.705 ± 0.077
39 | LVHRGRRGSNIE | 0.7537 ± 0.0011
40 | HKENTKEKKKRE | 0.693 ± 0.043
41 | RNVALPSRKAQY | 0.715 ± 0.016
42 | DTYSEQRIVVTK | 0.677 ± 0.012
43 | PLVSLLPHPRAA | 0.495 ± 0.094
44 | RWFTFPVPVPFC | 0.642 ± 0.036
45 | PGGCQDPWAALC | 0.714 ± 0.077
46 | RELLWFIFTGFC | 0.622 ± 0.042
47 | ARPCPRPHVPST | 0.706 ± 0.043
48 | AGRGGRAGGGWR | 0.668 ± 0.015
49 | RCGRVEKRIGRV | 0.756 ± 0.086
50 | MRPSLIKVFLTR | 0.632 ± 0.04
51 | PPPPSSLPPPPC | 0.691 ± 0.012
52 | VGVLLGPVWFSV | 0.684 ± 0.042

Row | Sequence | protein stability index
53 | RREVKKNGNKRN | 0.713 ± 0.073
54 | AAIQNRPIQSNP | 0.672 ± 0.027
55 | MVRRDGMTVSLG | 0.719 ± 0.028
56 | SGGWLAACYAVY | 0.668 ± 0.032
57 | PRIGPAPLPRLS | 0.714 ± 0.043
58 | FCRCNYLYRIPK | 0.6615 ± 0.0026
59 | CTRLSQTSMGRG | 0.696 ± 0.043
60 | VVLVGVVGGMVG | 0.639 ± 0.018
61 | KVAECGYGTSWV | 0.724 ± 0.013
62 | SPPPPTPPLSPP | 0.669 ± 0.0051
63 | GFCWFRGVGSGG | 0.683 ± 0.044
64 | PRRFPPPSPSPP | 0.713 ± 0.085
65 | PFPPRLPSPATP | 0.6914 ± 0.0037
66 | FFVAFGSWFGFL | 0.677 ± 0.099
67 | PPHTRTACHRAP | 0.7251 ± 0.0034
68 | SILRRFSPPPLL | 0.75 ± 0.051
69 | RRLFGLGWDVKI | 0.7177 ± 0.0034
70 | PPLSCFPLSTRL | 0.683 ± 0.002
71 | GPSQLRLSSCSF | 0.716 ± 0.041
72 | DVLSSVRGLTLL | 0.678 ± 0.0082
73 | IAMVTLPRLNKS | 0.7179 ± 0.0071
74 | GGGAGLVGGCVA | 0.735 ± 0.019
75 | KFRLAGSVARSG | 0.684 ± 0.013
76 | PCPPNSPPLSPT | 0.71 ± 0.043
77 | PRRQDSRLEQPD | 0.713 ± 0.0077
78 | LPPPPLTTLLHT | 0.604 ± 0.043

Row | Sequence | protein stability index
79 | WGRCLGWAGPAG | 0.788 ± 0.11
80 | PPRTHRPPTPPQ | 0.7212 ± 0.0063
81 | PPTVSRPPHLPT | 0.69 ± 0.048
82 | WFCFGSFILCLL | 0.492 ± 0.028
83 | KPLPSHYPGRTP | 0.658 ± 0.016
84 | PPSLPPLFLRAP | 0.667 ± 0.0091
85 | PPSLPLLLPPCT | 0.649 ± 0.019
86 | LLIHLKDFYCFV | 0.855 ± 0.019
87 | SFGLSYYFRNSL | 0.731 ± 0.066
88 | SGLRFLSWSVHV | 0.6114 ± 0.0051
89 | VVAFSLLSGFLV | 0.636 ± 0.04
90 | RGFMLGFVSRFS | 0.625 ± 0.039
91 | VFALSSVAIRRS | 0.64 ± 0.032
92 | GGRGGRSGTEGE | 0.6763 ± 0.0011
93 | GQLAERYRPARP | 0.6903 ± 0.003
94 | GINFEIKFKRYN | 0.764 ± 0.055
95 | KKEKRQQEKIIK | 0.671 ± 0.04
96 | VGGAVGAGGGGG | 0.649 ± 0.032
97 | DNVVLVRQAAFI | 0.618 ± 0.066
98 | GSRSKLPICGCL | 0.809 ± 0.18
99 | LSPPLSLPPASP | 0.731 ± 0.032
100 | TFFLPPSCFYPP | 0.616 ± 0.051
101 | HREQSTILDLKE | 0.715 ± 0.036
102 | IKKNHKENKRKE | 0.666 ± 0.016
103 | RGGVAGQPDAGR | 0.666 ± 0.014
104 | PPPHTPLPPLAP | 0.744 ± 0.05

Row | Sequence | protein stability index
105 | ECGLGGWGGLGV | 0.657 ± 0.078
106 | NGISQWMGIGGQ | 0.667 ± 0.011
107 | GSVTIDSMIHMR | 0.667 ± 0.037
108 | LSTSINTIIPGP | 0.71 ± 0.14
109 | LACWAGVLGWGG | 0.732 ± 0.022
110 | ICLMRETAGRED | 0.757 ± 0.2
111 | GCENSRRSWRPD | 0.609 ± 0.028
112 | TTSDSVVFWTLH | 0.719 ± 0.0074
113 | VQTHPFWFPTLL | 0.573 ± 0.07
114 | PPSVPTPCPVPI | 0.696 ± 0.067
115 | KGENKRRVRKKN | 0.574 ± 0.014
116 | SMLVPLPPFSSA | 0.694 ± 0.0097
117 | SWRKGAHRPVEV | 0.66 ± 0.036
118 | RSSFCILCCLFS | 0.557 ± 0.024
119 | SHRSALLPFLPP | 0.646 ± 0.046
120 | SENVSATLNNQD | 0.708 ± 0.028
121 | PSPRSFLSIRFL | 0.581 ± 0.013
122 | VPEVRRTDGRVR | 0.74 ± 0.014
123 | PLYLSFSFCPSF | 0.611 ± 0.013
124 | TKFKPKILEKCT | 0.686 ± 0.021
125 | LFCGALSTRLAR | 0.751 ± 0.081
126 | HPPPPSPPSPLP | 0.724 ± 0.036
127 | CLWTSAQVPFQT | 0.703 ± 0.0081
128 | VSREWNVSIDVF | 0.495 ± 0.027
129 | RNNKMYKYQGNL | 0.662 ± 0.083
130 | DETIAALYTMTD | 0.615 ± 0.014

Row | Sequence | protein stability index
131 | PSPPPTPPLICL | 0.697 ± 0.025
132 | QNKKNKNKKKKE | 0.706 ± 0.027
133 | CLPTGMSKFPDF | 0.683 ± 0.029
134 | LPVLGSFRLIWL | 0.626 ± 0.016
135 | YSGRGLISNHGY | 0.723 ± 0.043
136 | GVSCGWVAHARW | 0.694 ± 0.061
137 | KREQGPRPRACR | 0.617 ± 0.036
138 | LLNLQEEADLPS | 0.724 ± 0.035
139 | LRNGSFFLVFSC | 0.531 ± 0.016
140 | LPFFFPRLFSPP | 0.691 ± 0.061
141 | PSPPLPLPLLSV | 0.633 ± 0.029
142 | GNIKPNEDRGGP | 0.793 ± 0.027
143 | LPSPSSLPAPPV | 0.677 ± 0.031
144 | VPLPGAAGATLL | 0.773 ± 0.091
145 | SKSLRAAQGGRT | 0.684 ± 0.016
146 | STAFRDSAMRDP | 0.664 ± 0.051
147 | KRYSVPLTTVVD | 0.7165 ± 0.0035
148 | PNLKLSPKWAKP | 0.67 ± 0.063
149 | PRSSPPPPPPPP | 0.681 ± 0.035
150 | TWVVPSASWLVF | 0.598 ± 0.009
151 | ARPPTPLRKGAP | 0.673 ± 0.017
152 | ISYIGCCKIVLT | 0.553 ± 0.0086
153 | LVRAWRGGVGGV | 0.669 ± 0.0098
154 | LDCVPRTHCILS | 0.664 ± 0.074
155 | GRCWAGAMGVVG | 0.71 ± 0.015
156 | PPPDYPPTPAPS | 0.715 ± 0.054

Row | Sequence | protein stability index
157 | HPPLAPQPPPPP | 0.711 ± 0.033
158 | KDKKKENKNNGE | 0.6787 ± 0.0036
159 | SMVLRTIKKRNI | 0.661 ± 0.015
160 | WCLNMLLIPSMY | 0.605 ± 0.021
161 | PPFPPRPLPPIP | 0.693 ± 0.017
162 | SPVPIPPSPSRP | 0.687 ± 0.019
163 | KKQKRRKGEREK | 0.637 ± 0.0023
164 | GVLPWQYSSFLS | 0.694 ± 0.058
165 | RSEGEGGKGKRE | 0.687 ± 0.019
166 | PPDPRLPRHDRP | 0.755 ± 0.018
167 | RSLDEPCGFFRP | 0.637 ± 0.023
168 | LPAPPAPLTFPG | 0.687 ± 0.021
169 | FGRFCYELLCGT | 0.541 ± 0.056
170 | MMEQLCCRRRLF | 0.496 ± 0.041
171 | DRRKRMLLLEHP | 0.76 ± 0.054
172 | KEGRKKKRQINT | 0.803 ± 0.076
173 | PHLTPRRQHRLR | 0.667 ± 0.049
174 | IGSLASRSALLL | 0.676 ± 0.0083
175 | LLWPSPAISLPT | 0.722 ± 0.021
176 | LLRVYNQNGERN | 0.734 ± 0.044
177 | KLNVRATPPPTI | 0.7 ± 0.055
178 | LVVCWGCGLGVL | 0.71 ± 0.033
179 | ERRSGGHCRKSG | 0.685 ± 0.036
180 | DSILCVPCVYLY | 0.629 ± 0.0084
181 | FYSPSAPSPFFL | 0.797 ± 0.052
182 | WWGRWPGLAGGR | 0.716 ± 0.068

Row | Sequence | protein stability index
183 | HPPPLGSSASNS | 0.703 ± 0.039
184 | AYLPSLPPLGGI | 0.717 ± 0.06
185 | LSQASPGSPRPA | 0.698 ± 0.011
186 | SGVSCPGRVDGG | 0.68 ± 0.0085
187 | HSRAPNNWHRGI | 0.708 ± 0.043
188 | VASGLVLFSGGV | 0.655 ± 0.0076
189 | PRPLALPFCKLW | 0.808 ± 0.14
190 | WVEACVCRGFVG | 0.698 ± 0.059
191 | LSPPPSLSSRPP | 0.706 ± 0.064
192 | RGKTGLTRYIGV | 0.709 ± 0.074
193 | KKIKKKKQTKRK | 0.662 ± 0.039
194 | PAPPFPIRPPAA | 0.653 ± 0.015
195 | LLVMRGMRGCGT | 0.681 ± 0.056
196 | PHTHHAPNTRNQ | 0.6797 ± 0.0036
197 | PCLSFPPALRAA | 0.641 ± 0.012
198 | LPRFAPPNPALP | 0.658 ± 0.071
199 | RSAMRLFEPFSP | 0.745 ± 0.19
200 | PAHSTEVVPRVL | 0.717 ± 0.018
201 | SNKKRTRNEGKD | 0.6109 ± 0.0047
202 | IRKGKKIRKKEN | 0.641 ± 0.037
